Data: patent US20210155676A1 (Gilead, published 2021)
Residue numbers refer to the chain shown, from its start.

Columns and labels:
gp140 BaL = biological target: T1, gp140 BaL (HIV-1 strain BaL); assay: ELISA, gp140 coated
T1 construct: domain: gp140
Experimental: (§1) The in vitro binding characteristics of antibodies for both the antigen (HIV gp120) and Fc binding receptors (FcγRs, FcRn) were determined using an Enzyme-Linked Immunosorbant Assay (ELISA).

gp140 SHIV SF162P3 = biological target: T2, gp140 SHIV SF162P3 (SHIV SF162P3); assay: ELISA, gp140 coated
T2 construct: domain: gp140; also called SHIV gp140
Experimental: as §1

human FcγRIIIA [1] = biological target: T3, human FcγRIIIA (human, UniProt P08637 17-254); assay: cell-based or functional assay
human FcγRIIIA [2] = biological target: T3, human FcγRIIIA; assay: cell-based or functional assay; remark: listed apart in the source
human FcγRIIIA [3] = biological target: T3, human FcγRIIIA; assay: cell-based or functional assay; remark: listed apart in the source
HIV-1 BaL Env (on virus) = HIV-1 BaL Env (on virus) (HIV-1 strain BaL); assay: cell-based or functional assay
[4] = biological target: HIV-1 93HT593 Env (on virus) (HIV-1 isolate 93HT593); assay: cell-based or functional assay
[5] = biological target: HIV-1 92US657 Env (on virus) (HIV-1 isolate 92US657); assay: cell-based or functional assay
[6] = biological target: HIV-1 92US712 Env (on virus) (HIV-1 isolate 92US712); assay: cell-based or functional assay
[7] = biological target: HIV-1 92US727 Env (on virus) (HIV-1 isolate 92US727); assay: cell-based or functional assay
[8] = biological target: human FcγRIIIA on primary NK effector cells (human, UniProt P08637 17-254); assay: cell-based or functional assay
[9] = biological target: HIV-1 Env of subtype B isolate MGRM-B-106 (HIV-1); assay: cell-based or functional assay
[10] = biological target: HIV-1 Env of subtype B isolate MGRM-B-112 (HIV-1); assay: cell-based or functional assay
[11] = biological target: HIV-1 Env of subtype B isolate MGRM-B-136 (HIV-1); assay: cell-based or functional assay
[12] = biological target: HIV-1 Env of subtype B isolate MGRM-B-105 (HIV-1); assay: cell-based or functional assay
[13] = biological target: HIV-1 Env of subtype B isolate MGRM-B-132 (HIV-1); assay: cell-based or functional assay
[14] = biological target: HIV-1 Env of subtype B isolate MGRM-B-110 (HIV-1); assay: cell-based or functional assay
[15] = biological target: HIV-1 Env of subtype B isolate MGRM-B-115 (HIV-1); assay: cell-based or functional assay
[16] = biological target: HIV-1 Env of subtype B isolate MGRM-B-111 (HIV-1); assay: cell-based or functional assay
[17] = biological target: HIV-1 Env of subtype B isolate MGRM-B-118 (HIV-1); assay: cell-based or functional assay
[18] = biological target: HIV-1 Env of subtype B virus 15-124986 (HIV-1); assay: cell-based or functional assay
[19] = biological target: HIV-1 Env of subtype B virus 15-124918 (HIV-1); assay: cell-based or functional assay
[20] = biological target: HIV-1 Env of subtype B virus 15-124914 (HIV-1); assay: cell-based or functional assay
[21] = biological target: HIV-1 Env of subtype B virus 15-124964 (HIV-1); assay: cell-based or functional assay
[22] = biological target: HIV-1 Env of subtype B virus 15-124906 (HIV-1); assay: cell-based or functional assay
[23] = biological target: HIV-1 Env of subtype B virus 15-124904 (HIV-1); assay: cell-based or functional assay
[24] = biological target: HIV-1 Env of subtype B virus 15-102514 (HIV-1); assay: cell-based or functional assay
[25] = biological target: HIV-1 Env of subtype B virus 15-101757 (HIV-1); assay: cell-based or functional assay
[26] = biological target: HIV-1 Env of subtype B virus 15-124987 (HIV-1); assay: cell-based or functional assay
[27] = biological target: HIV-1 Env of subtype B virus 15-124962 (HIV-1); assay: cell-based or functional assay
[28] = biological target: HIV-1 Env of subtype B virus 15-124970 (HIV-1); assay: cell-based or functional assay
[29] = biological target: HIV-1 Env of subtype B virus 15-124950 (HIV-1); assay: cell-based or functional assay
[30] = biological target: HIV-1 Env of subtype B virus 15-124975 (HIV-1); assay: cell-based or functional assay
[31] = biological target: HIV-1 Env of subtype B virus 15-124934 (HIV-1); assay: cell-based or functional assay
[32] = biological target: HIV-1 Env of subtype B virus 15-101608 (HIV-1); assay: cell-based or functional assay
[33] = biological target: HIV-1 Env of subtype B virus 15-124963 (HIV-1); assay: cell-based or functional assay
Human FcRn [34] = biological target: T4, Human FcRn (human, UniProt P55899 24-297; P61769 21-119); assay: ELISA, FcRn coated on plate, pH 6.0
T4 construct: also called neonatal Fc receptor
Experimental: (§2) The binding of antibodies to FcRn of various species at different pHs was determined. A 96-well Maxisorp plate was coated with 100 ul of 5 μg/ml FcRn. The plate was incubated overnight at 4° C., and then blocked with 4% skim milk for 2 hr at room temperature after washing 3 times with 0.05% Tween 20 washing buffer. The plate was incubated with 3 fold serial dilution of primary antibody for 1 hr at room temperature. The plate was then washed 3 times and 100 of Fab-anti-human Fab-HRP or Goat anti-human IgG-HRP secondary antibody diluted in 4% skimmed milk was added. Plates were then incubated 50 min at room temperature, washed three times, and 100 μL fresh TMB substrate was added. Plates were developed for 3 minutes on bench with gentle shaking. Plate was quenched with 100 μL 1M HCl, shaken briefly, read at A450 on a spectramax m5 plate reader.

Human FcRn [35] = biological target: T4, Human FcRn; assay: ELISA, FcRn coated on plate, pH 7.0
Experimental: as §2

Human FcRn [36] = biological target: T4, Human FcRn; assay: ELISA, pH 7.0/6.0 ratio relative to PGT121
Experimental: as §2

Human FcRn [37] = biological target: T4, Human FcRn; assay: ELISA, ratio of EC50 at pH 7.0 to EC50 at pH 6.0
Experimental: as §2

T4 sequence (P55899 24-297 limits assumed, chain 1 of 2): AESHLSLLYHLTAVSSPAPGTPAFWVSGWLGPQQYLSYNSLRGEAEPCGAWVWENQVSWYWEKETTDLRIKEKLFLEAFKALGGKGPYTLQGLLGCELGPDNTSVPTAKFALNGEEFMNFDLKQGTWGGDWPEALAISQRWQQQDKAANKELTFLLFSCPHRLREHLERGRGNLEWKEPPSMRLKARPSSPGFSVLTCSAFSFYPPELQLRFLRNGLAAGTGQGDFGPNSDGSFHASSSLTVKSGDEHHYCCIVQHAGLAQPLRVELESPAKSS
T4 sequence (P61769 21-119 limits assumed, chain 2 of 2): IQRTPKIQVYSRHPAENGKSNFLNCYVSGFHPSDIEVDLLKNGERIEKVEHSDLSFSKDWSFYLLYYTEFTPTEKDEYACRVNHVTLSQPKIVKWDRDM
T3 sequence (P08637 17-254): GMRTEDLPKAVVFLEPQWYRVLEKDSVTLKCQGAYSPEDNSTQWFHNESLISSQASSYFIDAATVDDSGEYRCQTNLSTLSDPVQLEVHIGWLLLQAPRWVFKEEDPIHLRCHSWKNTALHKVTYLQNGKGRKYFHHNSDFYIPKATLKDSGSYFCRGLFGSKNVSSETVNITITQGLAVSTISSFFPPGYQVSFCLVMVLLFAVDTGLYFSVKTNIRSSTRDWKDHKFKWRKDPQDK
Chain of human FcγRIIIA on primary NK effector cells (P08637 17-254): as above

B1: PGT121.42 hIgG1/hLambda (antibody)
heavy: QMQLQESGPGLVKPSETLSLTCSVSGASISDSYWSWIRRSPGKGLEWIGYVHKSGDTNYNPSLKSRVHLSLDTSKNQVSLSLSSVTAADSGKYYCARTLHGRRIYGIVAFNEWFTYFYMDVWGKGTQVTVSSASTKGPSVFPLAPSSKSTSGGTAALGCLVKDYFPEPVTVSWNSGALTSGVHTFPAVLQSSGLYSLSSVVTVPSSSLGTQTYICNVNHKPSNTKVDKKVEPKSCDKTHTCPPCPAPELLAGPDVFLFPPKPKDTLMISRTPEVTCVVVDVSHEDPEVKFNWYVDGVEVHNAKTKPREEQYNSTYRVVSVLTVLHQDWLNGKEYKCKVSNKALPLPEEKTISKAKGQPREPQVYTLPPSREEMTKNQVSLTCLVKGFYPSDIAVEWESNGQPENNYKTTPPVLDSDGSFFLYSKLTVDKSRWQQGNVFSCSVLHEALHSHYTQKSLSLSPGK
light: not shown
notes: also called PTG121.42
gp140 BaL
  EC50: 0.52 nM
gp140 SHIV SF162P3
  EC50: 0.45 nM
Human FcγRIIIA [1]
  NK ADCC EC50, US657-infected CD4+ T cells, donor A4588: 4.3 nM
  NK ADCC EC50, US657-infected CD4+ T cells, donor A4589: 1.5 nM
  NK ADCC EC50, US657-infected CD4+ T cells, donor A4595: 0.57 nM
  NK ADCC EC50, US657-infected CD4+ T cells, donor A4813: 1.4 nM
  NK ADCC EC50, US657-infected CD4+ T cells, donor A4838: 0.94 nM
  NK ADCC EC50, US657-infected CD4+ T cells, donor A4839: 0.54 nM
  NK ADCC EC50, US657-infected CD4+ T cells, geomean of donors: 1.2 nM
Human FcγRIIIA [2]
  NK ADCC EC50, BaL-infected CD4+ T cells, donor A4590: 1.2 nM
  NK ADCC EC50, BaL-infected CD4+ T cells, donor A4591: 0.02 nM
  NK ADCC EC50, BaL-infected CD4+ T cells, donor A4813: 4.4 nM
  NK ADCC EC50, BaL-infected CD4+ T cells, donor A4838: 0.5 nM
  NK ADCC EC50, BaL-infected CD4+ T cells, donor A4839: 3.9 nM
  NK ADCC EC50, BaL-infected CD4+ T cells, geomean of donors: 0.7 nM
Human FcγRIIIA [3]
  NK ADCC EC50, HT593-infected CD4+ T cells, donor 1: 0.024 nM
  NK ADCC EC50, HT593-infected CD4+ T cells, donor A4588: 0.176 nM
  NK ADCC EC50, HT593-infected CD4+ T cells, donor A4589: 0.18 nM
  NK ADCC EC50, HT593-infected CD4+ T cells, donor A4813: 4.9 nM
  NK ADCC EC50, HT593-infected CD4+ T cells, donor A4838: 0.62 nM
  NK ADCC EC50, HT593-infected CD4+ T cells, donor A4839: 5.2 nM
  NK ADCC EC50, HT593-infected CD4+ T cells, donor X: 0.014 nM
  NK ADCC EC50, HT593-infected CD4+ T cells, geomean of donors: 0.3 nM
HIV-1 BaL Env (on virus)
  neutralization IC50, HIV-1 BaL, CEM.NKr.CCR5.Luc assay: 0.015 µg/mL
[4]
  neutralization IC50, HIV-1 HT593, CEM.NKr.CCR5.Luc assay: 0.155 µg/mL
[5]
  neutralization IC50, HIV-1 US657, CEM.NKr.CCR5.Luc assay: 0.096 µg/mL
[6]
  neutralization IC50, HIV-1 US712, CEM.NKr.CCR5.Luc assay: 0.02 µg/mL
[7]
  neutralization IC50, HIV-1 US727, CEM.NKr.CCR5.Luc assay: 0.015 µg/mL

B2: PGT121.56 hIgG1/hLambda (antibody)
heavy: B1 heavy with N60S, H68N, S83V, S84A, V85A, K124N
light: not shown
gp140 BaL
  EC50: 0.59 nM
gp140 SHIV SF162P3
  EC50: 0.48 nM
HIV-1 BaL Env (on virus)
  neutralization IC50, HIV-1 BaL, CEM.NKr.CCR5.Luc assay: 0.02 µg/mL
[4]
  neutralization IC50, HIV-1 HT593, CEM.NKr.CCR5.Luc assay: 0.164 µg/mL
[5]
  neutralization IC50, HIV-1 US657, CEM.NKr.CCR5.Luc assay: 0.142 µg/mL
[6]
  neutralization IC50, HIV-1 US712, CEM.NKr.CCR5.Luc assay: 0.019 µg/mL
[7]
  neutralization IC50, HIV-1 US727, CEM.NKr.CCR5.Luc assay: 0.011 µg/mL

B3: PGT121.60 hIgG1/hLambda (antibody)
heavy: B1 heavy with S83T, S84G, K124T
light: not shown
[8]
  ADCC AUC, NK donor A4813, primary CD4+ T cells infected with HT593: 185
  ADCC AUC, NK donor A4813, primary CD4+ T cells infected with US657: 220
  ADCC EC50, NK donor A4813, primary CD4+ T cells infected with HT593: 0.7 nM
  ADCC EC50, NK donor A4813, primary CD4+ T cells infected with US657: 1.2 nM
  ADCC Emax, NK donor A4813, primary CD4+ T cells infected with HT593: 67%
  ADCC Emax, NK donor A4813, primary CD4+ T cells infected with US657: 72%
[9]
  PGT121 IC50/PGT121.60 IC50: 4.1 fold
  neutralization IC50: 0.001 µg/mL
[10]
  PGT121 IC50/PGT121.60 IC50: 2.5 fold
  neutralization IC50: 0.0058 µg/mL
[11]
  PGT121 IC50/PGT121.60 IC50: 1.2 fold
  neutralization IC50: 0.0071 µg/mL
[12]
  PGT121 IC50/PGT121.60 IC50: 2.9 fold
  neutralization IC50: 0.0076 µg/mL
[13]
  PGT121 IC50/PGT121.60 IC50: 1.2 fold
  neutralization IC50: 0.0077 µg/mL
[14]
  PGT121 IC50/PGT121.60 IC50: 3.3 fold
  neutralization IC50: 0.0113 µg/mL
[15]
  PGT121 IC50/PGT121.60 IC50: 1.7 fold
  neutralization IC50: 0.141 µg/mL
[16]
  PGT121 IC50/PGT121.60 IC50: 2.2 fold
  neutralization IC50: 0.955 µg/mL
[17]
  PGT121 IC50/PGT121.60 IC50: 0.7 fold
  neutralization IC50: 3.31 µg/mL
[18]
  PGT121 IC50/PGT121.60 IC50: 3.2 fold
  neutralization IC50: 0.0015 µg/mL
[19]
  PGT121 IC50/PGT121.60 IC50: 3 fold
  neutralization IC50: 0.0018 µg/mL
[20]
  PGT121 IC50/PGT121.60 IC50: 3 fold
  neutralization IC50: 0.002 µg/mL
[21]
  PGT121 IC50/PGT121.60 IC50: 3.5 fold
  neutralization IC50: 0.0026 µg/mL
[22]
  PGT121 IC50/PGT121.60 IC50: 5.3 fold
  neutralization IC50: 0.0103 µg/mL
[23]
  PGT121 IC50/PGT121.60 IC50: 3.1 fold
  neutralization IC50: 0.0121 µg/mL
[24]
  PGT121 IC50/PGT121.60 IC50: 3.5 fold
  neutralization IC50: 0.0128 µg/mL
[25]
  PGT121 IC50/PGT121.60 IC50: 4.7 fold
  neutralization IC50: 0.0132 µg/mL
[26]
  PGT121 IC50/PGT121.60 IC50: 3.1 fold
  neutralization IC50: 0.0163 µg/mL
[27]
  PGT121 IC50/PGT121.60 IC50: 3.4 fold
  neutralization IC50: 0.0277 µg/mL
[28]
  PGT121 IC50/PGT121.60 IC50: 3.9 fold
  neutralization IC50: 0.0285 µg/mL
[29]
  PGT121 IC50/PGT121.60 IC50: 3 fold
  neutralization IC50: 0.0995 µg/mL
[30]
  PGT121 IC50/PGT121.60 IC50: 5.5 fold
  neutralization IC50: 0.105 µg/mL
[31]
  PGT121 IC50/PGT121.60 IC50: 12.1 fold
  neutralization IC50: 0.797 µg/mL
[32]
  PGT121 IC50/PGT121.60 IC50: 3.6 fold
  neutralization IC50: 1.84 µg/mL
[33]
  PGT121 IC50/PGT121.60 IC50: 8.2 fold
  neutralization IC50: 2.05 µg/mL
Human FcRn [34]
  EC50: 0.22 nM
Human FcRn [35]
  EC50: 78 nM
Human FcRn [36]
  Fold vs PGT121: 11 fold
Human FcRn [37]
  Ratio pH 7.0/6.0: 355
